Assay results from US9289492B2, “Collecting ovarian cancer stem cells from ovarian cancer cells” (The General Hospital Corporation, priority 2007, dated 2016).
Read-outs that look alike come from different tables or passages of the source.

What was measured:
MOVCAR 7 cells = assay: Hoechst 33342 side population flow cytometry with verapamil, MOVCAR 7; assay type: cell-based, mouse; details: MOVCAR 7, verapamil 25-50 μg/ml, Hoechst 33342 flow cytometry
Description: (§1) Flow cytometry was performed in the Department of Pathology and Center for Regenerative Medicine Flow Cytometry Laboratory according to their published protocols (36). Mouse and human ovarian cancer SP sorting and immunophenotyping were performed as described in Supporting Methods, which is published as supporting information on the PNAS web site.
(§2) SP cells were identified and electronically gated on a Digital Vantage cell sorter (Becton Dickinson) after excitation of the Hoechst dye with 150 mW of 350 nm UV light. SP fluorescence emissions were directed toward a 610-nm dichroic filter and captured simultaneously through both a blue (450-nm) band-pass and a red (675-nm) long-pass filter on a linearly amplified fluorescence scale.

4306 cells = assay: Hoechst 33342 side population flow cytometry with verapamil, 4306; assay type: cell-based, mouse; details: 4306, verapamil 25-50 μg/ml, Hoechst 33342 flow cytometry
Description: as §1, §2

MOVCAR 7 NSP cells = assay: MTT proliferation assay, MOVCAR 7 NSP cells; assay type: cell-based, mouse; details: for inhibition at 0.004 µM: Mus musculus, read-out: inhibition (MTT growth inhibition)
Description: (§3) MTT assay was used to assess proliferation inhibition. MOVCAR 7 and 4306 cells were harvested, sorted for SPs and NSPs, and plated in the inner wells of 96-well plates at 1,000 cells per well in 200 μl of medium per well. […] At day 5 or 7 of incubation, cell viability was quantified by measuring mitochondrial activity (38) on an ELISA plate reader at an absorbance of 550 nm to generate an OD proportional to the relative abundance of live cells in a given well.
(§4) Statistical Analysis. In MTT assays, MIS-, doxorubicin-, and paclitaxel-treated and untreated samples were analyzed by using the univariant two-tailed Student t test, with P ≦0.05conferring statistical significance. All experiments were performed in triplicate. In ovarian somatic stem cell studies, all p-values were calculated with the use of two-tailed student's t-test. Differences with p-values less than 0.05 were considered significant.

MOVCAR 7 SP cells = assay: MTT proliferation assay, MOVCAR 7 SP cells; assay type: cell-based, mouse; details: for inhibition at 0.004 µM: Mus musculus, 4 nM drug, compared with vehicle-treated controls, read-out: inhibition (MTT growth inhibition)
Description: as §3, §4

BCRP1 transporter = target: T1, BCRP1 transporter (Homo sapiens, UniProt Q9UNQ0); details: reference 23; cited from earlier work
T1 sequence (Q9UNQ0 1-655): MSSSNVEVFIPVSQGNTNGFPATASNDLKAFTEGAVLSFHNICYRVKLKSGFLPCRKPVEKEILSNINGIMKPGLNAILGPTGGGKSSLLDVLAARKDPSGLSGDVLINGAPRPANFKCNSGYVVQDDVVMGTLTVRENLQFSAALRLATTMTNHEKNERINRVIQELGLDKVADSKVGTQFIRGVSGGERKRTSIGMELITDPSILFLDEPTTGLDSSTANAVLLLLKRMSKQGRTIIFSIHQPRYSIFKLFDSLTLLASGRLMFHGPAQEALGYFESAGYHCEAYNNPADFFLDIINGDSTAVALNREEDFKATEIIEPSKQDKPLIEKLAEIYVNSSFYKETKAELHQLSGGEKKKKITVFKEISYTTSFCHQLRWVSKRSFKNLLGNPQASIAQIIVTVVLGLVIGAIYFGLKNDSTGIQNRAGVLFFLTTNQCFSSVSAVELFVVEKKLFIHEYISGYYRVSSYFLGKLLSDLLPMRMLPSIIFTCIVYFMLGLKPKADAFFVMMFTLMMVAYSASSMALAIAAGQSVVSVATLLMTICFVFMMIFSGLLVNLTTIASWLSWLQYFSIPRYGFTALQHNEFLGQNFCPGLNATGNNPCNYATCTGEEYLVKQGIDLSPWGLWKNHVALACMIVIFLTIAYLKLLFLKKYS

MOVCAR 7 [1] = details: in vitro, reference 25; cited from earlier work
4306 SP cells = assay: MTT proliferation assay, 4306 SP cells; assay type: cell-based, mouse
Description: as §3, §4

OVCAR 8 cells = details: references 25, 35; cited from earlier work
[2] = Organ culture bioassay for MIS; details: purified recombinant human MIS
Description: The human MIS gene was transfected into CHO cells, amplified, purified, and maintained in a dedicated facility in the Pediatric Surgical Research Laboratories for use in this study as described in ref.39. MIS levels were measured by using human MIS-specific ELISA (40). MIS was purified by a combination of lectin affinity chromatography and FPLC anion-exchange chromatography (39).

MOVCAR 7 [3] = details: in vivo, reference 25; cited from earlier work
MOVCAR 8 cells = details: references 25, 35; cited from earlier work
[4] = test system: human anchorage-independent Mullerian tumors; details: soft agarose, reference 34; cited from earlier work
[5] = 4 nM drug, versus vehicle-treated controls

Molecule: COc1ccc(CCN(C)CCCC(C#N)(c2ccc(OC)c(OC)c2)C(C)C)cc1OC (stereo not drawn) [Verapamil, verapamil]
- elimination of the SP (MOVCAR 7 cells): effectively eliminated the SP
- elimination of the SP (4306 cells): effectively eliminated the SP

Molecule: COc1cccc2c1C(=O)c1c(O)c3c(c(O)c1C2=O)C[C@@](O)(C(=O)CO)C[C@@H]3O[C@H]1C[C@H](N)[C@H](O)[C@H](C)O1 [doxorubicin]
- inhibition at 0.004 µM (MOVCAR 7 NSP cells; [5]): 81%
- inhibition at 0.004 µM (MOVCAR 7 SP cells; MOVCAR 7 SP cells): 30%
- substrate of the BCRP1 transporter (BCRP1 transporter): is a substrate

Molecule: CC(=O)O[C@H]1C(=O)[C@@]2(C)[C@H]([C@H](OC(=O)c3ccccc3)[C@]3(O)C[C@H](OC(=O)[C@H](O)[C@@H](NC(=O)c4ccccc4)c4ccccc4)C(C)=C1C3(C)C)[C@]1(OC(C)=O)CO[C@@H]1C[C@@H]2O [paclitaxel]
- inhibition (MTT growth inhibition) (MOVCAR 7 NSP cells; [5]): 88%
- inhibition at 0.004 µM (MOVCAR 7 NSP cells; [5]): 83%
- inhibition at 0.004 µM (MOVCAR 7 SP cells; MOVCAR 7 SP cells): 85%

B1: MIS: Recombinant human Mullerian Inhibiting Substance protein (SEQ ID NO: 16), produced in CHO cells and purified (protein, listed as Homo sapiens)
chain: MRDLPLTSLALVLSALGALLGTEALRAEEPAVGTSGLIFREDLDWPPGSPQEPLCLVALGGDSNGSSSPLRVVGALSAYEQAFLGAVQRARWGPRDLATFGVCNTGDRQAALPSLRRLGAWLRDPGGQRLVVLHLEEVTWEPTPSLRFQEPPPGGAGPPELALLVLYPGPGPEVTVTRAGLPGAQSLCPSRDTRYLVLAVDRPAGAWRGSGLALTLQPRGEDSRLSTARLQALLFGDDHRCFTRMTPALLLLPRSEPAPLPAHGQLDTVPFPPPRPSAELEESPPSADPFLETLTRLVRALRVPPARASAPRLALDPDALAGFPQGLVNLSDPAALERLLDGEEPLLLLLRPTAATTGDPAPLHDPTSAPWATALARRVAAELQAAAAELRSLPGLPPATAPLLARLLALCPGGPGGLGDPLRALLLLKALQGLRVEWRGRDPRGPGRAQRSAGATAADGPCALRELSVDLRAERSVLIPETYQANNCQGVCGWPQSDRNPRYGNHVVLLLKMQARGAALARPPCCVPTAYAGKLLISLSEERISAHHVPNMVATECGCR
- inhibition by MIS (MTT) (MOVCAR 7 NSP cells; first sort, 10 μg/ml MIS, versus vehicle): 93%
- inhibition of MOVCAR 7 (MOVCAR 7 [1]): inhibit
- inhibition by MIS (MTT) (4306 SP cells; 4306 SP cells after sort 2, 10 μg/ml MIS): 60%
- inhibition by MIS (MTT) (4306 SP cells; 4306 SP cells after sort 3, 10 μg/ml MIS, not significant): 17%
- inhibition by MIS (MTT) (4306 SP cells; 4306 SP cells, first sort, 10 μg/ml MIS, vs. vehicle control): 37%
- inhibition of OVCAR 8 cells (OVCAR 8 cells): inhibits
- inhibition by MIS (MTT) (MOVCAR 7 SP cells; MOVCAR 7 SP cells after sort 2, 10 μg/ml MIS): 93%
- inhibition by MIS (MTT) (MOVCAR 7 SP cells; MOVCAR 7 SP cells after sort 3, 10 μg/ml MIS): 94%
- inhibition by MIS (MTT) (MOVCAR 7 SP cells; MOVCAR 7 SP cells, first sort, 10 μg/ml MIS, versus vehicle): 86%
- regression in organ culture bioassay [2]: causes regression
- inhibition of MOVCAR 7 (MOVCAR 7 [3]): inhibit
- inhibition of MOVCAR 8 cells (MOVCAR 8 cells): inhibits
- inhibition of anchorage-independent tumors [4]: inhibits
